# Assay results as given in patent US20210032351A1 (XDCEXPLORER SHANGHAI, published 2021).
# Substitutions are numbered along the chain they refer to.
# B1: Murine anti-75G7 (antibody, V domains shown)
# VH: EVQLQQSGPELVKPGASVKIPCKASGYTFTDYNMDWVKQSHGKSLEWIGDINPNNGDTIYNQKFKGKATLTVDKSSSTAYMELRSLTSEDTAVYYCARGDYDGYYPVYYAMDYWGQGTSVTVSS
# VL: ENVLTQSPAIMSASPGEKVTMTCRASSSVSSSYLHWYQQKSGASPKLWIFSTSNLAAGVPARFSGSGSGTSYSLTVSSVEAEDAATYYCQQYSGYPLTFGAGTKLELK
# notes: Mouse hybridoma antibody; also called 75G7C6
# B2: Murine anti-63A10 (antibody, V domains shown)
# VH: QVQLQQSGAELARPGASVKMSCKASGYTFISFTMHWVKQRPGQGLEWIGYINPNSGYTKYNQKFKDKATLTAGQSSSTAYMQLSSLTSEDSAVYYCTRGGGRGFAYWGQGTLVTVSA
# VL: DILMTQSPSSMSVSLGDTVTITCHASQDINSNIGWLQQKPGKSFKALIYHGTNLEDGVPSRFSGSGSGADYSLTISSLESEDFADYYCVQYAQFPFTFGSGTKLEIK
# notes: Mouse hybridoma antibody; also called 63A10A7
# B3: Murine anti-64F1 (antibody, V domains shown)
# VH: B2 VH with I30S, F32Y, V37A, N54S, G73D, Q74K, A92I, T97A
# VL: QIVLTQSPAIMSASPGERVTMTCSASSSVSYMYWYQQKPGSSPRLLIYDTSNLASGVPVRFSGSGSGTSYSLTISRVEAEDAATYYCQQWSSYSLTFGAGTKLELK
# notes: Mouse hybridoma antibody; also called 64F1F8
# B4: Murine anti-7E5 (antibody, V domains shown)
# VH: EIQLQQSGPELVKPGASVKVSCKASGYSFTDYNMYWVKQSHGKSLEWIGYVDPSNGGTNYNQKFKGKATLTVDKSSSTAFMHLNSLTSEDSAVYYCARGFFDYWGQGTTLTVSS
# VL: DIVMTQSPSSLTVTAGEKVTMSCKSSQSLLNSGNQKNYLTWYQQKPGQPPKLLIYWASNRESGVPDRFTGSGSGKDFTLTISSVQAEDLAVYYCQNDYRYPVTFGAGTKLELK
# notes: Mouse hybridoma antibody; also called 7E5-2A9; murine anti-7E5-2
# B5: Chimeric antibody 64F1 (antibody, human IgG1, V domains shown)
# VH: B2 VH with I30S, F32Y, V37A, N54S, G73D, Q74K, A92I, T97A
# VL: B3 VL
# notes: also called clone 64F1F8
# How the values were obtained:
# [1] = molecular target: T1, biotin-labeled recombinant EGFRvIII protein (UniProt P00533 25-645, biotin-labeled); experiment: competitive ELISA; competitor Control antibody 02
# T1 construct: the construct is not described
# Procedure: (§1) The purified antibodies to be tested are diluted with PBS to 1 μg/mL, coated onto a 96-well high-adsorption ELISA plate at 50 μL/well at 4° C. overnight, and then blocked with 250 μL of the blocking solution [PBS containing 0.01% (v/v) Tween20 and 1% (w/w) BSA] for one hour at room temperature, and each well is added with 0.05 μg/mL of the biotin-labeled recombinant EGFRvIII protein. Simultaneously, 5 μg/mL of the competitive antibody (i.e., the purified EGFRvIII antibody obtained in example 2) is added thereto, and incubated at 25° C.−37° C. for 1 to 2 hours. The plate is washed 3 times with the plate washing solution [PBS containing 0.01% (v/v) Tween20], and added with HRP (horseradish peroxidase) labeled streptavidin (purchased from Sigma). The plate is incubated for 0.5 hour at 37° C., and then washed 3 times with the plate washing solution [PBS containing 0.01% (v/v) Tween20]. The plate is added with 100 μL of TMB substrate/well, incubated for 30 minutes at room temperature, and then added with 100 μL of stopping solution (1.0N HCl)/well. A450 nm value is read using an ELISA plate reader (SpectraMax 384 plus, purchased from Molecular Device), and the results are shown in FIG. 6.
# [2] = molecular target: T1, biotin-labeled recombinant EGFRvIII …; experiment: competitive ELISA; competitor Murine anti-7E5
# Procedure: as §1
# [3] = molecular target: T1, biotin-labeled recombinant EGFRvIII …; experiment: competitive ELISA; competitor Murine anti-64F1
# Procedure: as §1
# [4] = molecular target: T1, biotin-labeled recombinant EGFRvIII …; experiment: competitive ELISA; competitor Murine anti-63A10
# Procedure: as §1
# [5] = molecular target: T2, human EGFRvIII protein on the surface of U87MG-hEGFRvIII cells (human, UniProt P00533 25-1210); experiment: FACS on U87MG-hEGFRvIII cells
# T2 construct: whole, on cells; Stably transfected U87MG cells; also called mutant EGFRvIII protein; U87MG-EGFRvIII
# Procedure: (§2) The cells are washed twice with the HBSS buffer and are counted, and then the cells are diluted with the HBSS buffer to 2×10⁶ cells/ml, added with 1% goat serum blocking solution, with the percentage being the mass percentage, and incubated on ice for 30 minutes, and then centrifugally washed twice with the HBSS buffer. The collected cells are suspended to 2×10⁶ cells/mL with an FACS buffer (HBSS+1% BSA, with the percentage being the mass percentage), added to a 96-well FACS reaction plate at 100 μL/well, then added with 100 μL/well of the purified EGFRvIII antibody (samples to be tested) obtained in example 2, and incubated on ice for 2 hours. The plate is centrifugally washed twice with the FACS buffer, added with 100 μL/well of a fluorescence (Alexa 488) labeled secondary antibody (purchased from Invitrogen), and then incubated on ice for 1 hour. The plate is centrifugally washed 3 times with the FACS buffer, added with 100 μL/well of a fixing solution [4% (v/v) paraformaldehyde] for suspending the cells, and centrifugally washed twice with the FACS buffer after 10 minutes. The cells are suspended in 100 μL of the FACS buffer, and the results are detected and analyzed by FACS (FACS Calibur, purchased from BD). Data analysis is performed by using the software (CellQuest) to obtain the mean fluorescence intensity (MFI) of the cells. Data is further analyzed by using the software (GraphPad Prism5) to perform data fitting and calculate EC50. […] A431 cells (human epidermal cell cancer cell lines) have a large amount of wild-type EGFR protein expressed on the surface thereof. […] U87MG cells (human glioma cell lines) have a small amount of wild-type EGFR protein expressed on the surface thereof, while HEB cells (human glioma cell lines) have a high level of wild-type EGFR protein expression on the surface thereof.
# [6] = molecular target: T1, biotin-labeled recombinant EGFRvIII …; experiment: competitive ELISA; competitor Murine anti-75G7
# Procedure: as §1
# [7] = molecular target: T1, biotin-labeled recombinant EGFRvIII …; experiment: competitive ELISA; competitor Control antibody 01
# Procedure: as §1
# [8] = molecular target: T2, human EGFRvIII protein on the surface …; experiment: immunohistochemical staining, human glioma tissue chip
# [9] = molecular target: T3, wild-type human EGFR protein on the surface of cells (A431, HEB, U87MG) (human, UniProt P00533 25-1210); experiment: FACS on A431 cells
# T3 construct: whole, on cells; One molecule for all three cell lines; the cell line is named under assay; also called wild-type EGFR
# Procedure: as §2, with “The” for “The cells are washed twice with the HBSS buffer and are counted, and then the cells are diluted with the HBSS buffer to 2×10⁶ cells/ml, added with 1% goat serum blocking solution, with the percentage being the mass percentage, and incubated on ice for 30 minutes, and then centrifugally washed twice with the HBSS buffer. The”
# [10] = molecular target: T4, human EGFRvIII-hFc protein (human, UniProt P00533 25-645); experiment: ELISA, EGFRvIII-hFc coated
# T4 construct: extracellular domain; also called immunogen A; hFc-tagged EGFRvIII protein; not shown: human IgG Fc fragment (hFc) of the pCpC vector
# Procedure: The purified immunogen A (EGFRvIII-hFc) obtained in example 1 (for the preparation method, see step (I) in example 1) is diluted with PBS to a final concentration of 1.0 μg/mL, and then added to a 96-well ELISA plate at 100 μl/well. The plate is sealed with a plastic film and incubated at 4° C. overnight. The next day, the plate is washed twice with a plate washing solution [PBS+0.01% (v/v) Tween20], and added with a blocking solution [PBS+0.01% (v/v) Tween20+1% (w/w) BSA] for blocking 2 hours at room temperature. […] The plate is incubated for 2 hours at 37° C., and then washed 3 times with the plate washing solution [PBS+0.01% (v/v) Tween20]. The plate is added with an HRP (horseradish peroxidase) labeled secondary antibody (purchased from Sigma), incubated at 37° C. for 2 hours, and then washed 3 times with the plate washing solution [PBS+0.01% (v/v) Tween20]. The plate is added with 100 μl of TMB substrate/well, incubated for 30 minutes at room temperature, and then added with 100 μl of stopping solution (1.0N HCl)/well. A450 nm value is read using an ELISA plate reader (SpectraMax 384plus, purchased from Molecular Device), and the results are shown in FIG. 11 and table 19.
# [11] = molecular target: T5, human EGFRvIII protein on the cell surface (human, UniProt P00533 25-1210); experiment: FACS on U87MG-hEGFRvIII cells
# T5 construct: whole, on cells; the cell line is named under assay; also called hEGFRvIII; U87MG-hEGFRvIII
# Procedure: as §2
# [12] = molecular target: T6, human wild-type EGFR protein on the cell surface (human, UniProt P00533 25-1210); experiment: FACS on A431 cells; A431 cells (large amount of wild-type EGFR on the surface)
# T6 construct: whole, on cells; Endogenous on A431, HEB, U87MG cells and normal human primary hepatocytes; transfected on CHOk1-EGFR cells; The cell is named under assay; also called A431; HEB
# Procedure: as §2
Binder,competition rate [1],competition rate [2],competition rate [3],competition rate [4],EC50 [5],competition rate [6],competition rate [7],positive samples of 70 GBM samples [8],binding result [9],OD450 nm at 0.0001 nM antibody [10],OD450 nm at 0.001 nM antibody [10],OD450 nm at 0.01 nM antibody [10],OD450 nm at 0.1 nM antibody [10],OD450 nm at 1 nM antibody [10],OD450 nm at 10 nM antibody [10],OD450 nm at 100 nM antibody [10],EC50 [11],EC50 [12]
B1,-2%,3%,-3%,9%,4.8 nM,67%,-5%,–,–,–,–,–,–,–,–,–,–,–
B2,79%,82%,73%,89%,3.1 nM,20%,-3%,24 samples,–,–,–,–,–,–,–,–,–,–
B3,69%,80%,72%,81%,2 nM,13%,-5%,24 samples,–,–,–,–,–,–,–,–,–,–
B4,66%,85%,71%,70%,2.9 nM,23%,-2%,24 samples,no binding,–,–,–,–,–,–,–,–,–
B5,–,–,–,–,–,–,–,–,–,0.08 OD450,0.11 OD450,0.35 OD450,2.23 OD450,3.72 OD450,3.78 OD450,3.7 OD450,2.1 nM,180 nM
